Source: article PMC4013092

Molecular target: Mdb1 (UniProt O14079)
Assay: biotin-peptide streptavidin pull-down, Coomassie stain
Details: reference: unphosphorylated H2A peptide; sites S129

- binding against the reference: gained
Substance: H2A.1 C-terminal 13 residues, 120-132 (from UniProt P04909) pS129 (γH2A) peptide
